Source: the Immune Epitope Database (IEDB)
Blank lines part the entries; values can stand above or below the sequence they belong to.

Columns and labels:
[1] = biological target: HLA-A*01:01; assay: IEDB peptide-MHC binding, purified MHC/direct/fluorescence; filed as Kd, often an IC50 or EC50 that approximates it; ≥ and ≤ were set here for values at or beyond the usual limits of such assays
[2] = biological target: HLA-A*02:01; assay: as above
[3] = biological target: HLA-A*11:01; assay: as above
[4] = biological target: HLA-A*69:01; assay: as above
[5] = biological target: HLA-A*02:02; assay: IEDB peptide-MHC binding, purified MHC/competitive/radioactivity; filed as Kd, often an IC50 or EC50 that approximates it; ≥ and ≤ were set here for values at or beyond the usual limits of such assays
[6] = biological target: HLA-A*02:03; assay: as above
[7] = biological target: HLA-A*02:06; assay: as above
[8] = biological target: HLA-A*30:01; assay: as above
[9] = biological target: HLA-A*02:01; assay: IEDB peptide-MHC binding, purified MHC/competitive/fluorescence; ≥ and ≤ were set here for values at or beyond the usual limits of such assays
[10] = biological target: HLA-A*24:02; assay: as above
[11] = biological target: HLA-A*01:01; assay: IEDB peptide-MHC binding, purified MHC/competitive/radioactivity; filed as Kd, often an IC50 or EC50 that approximates it; ≥ and ≤ were set here for values at or beyond the usual limits of such assays
[12] = biological target: HLA-A*32:01; assay: as above
[13] = biological target: HLA-A*03:01; assay: as above
[14] = biological target: HLA-A*11:01; assay: as above; settings: source organism: Dengue virus 1 Brazil/97-11/1997
[15] = biological target: HLA-A*03:01; assay: IEDB peptide-MHC binding, purified MHC/direct/fluorescence; filed as Kd, often an IC50 or EC50 that approximates it; ≥ and ≤ were set here for values at or beyond the usual limits of such assays; settings: source organism: Orthohantavirus hantanense
[16] = biological target: HLA-A*31:01; assay: as above; settings: source organism: SARS-CoV1
[17] = biological target: HLA-B*35:01; assay: IEDB peptide-MHC binding, purified MHC/competitive/radioactivity; filed as Kd, often an IC50 or EC50 that approximates it; ≥ and ≤ were set here for values at or beyond the usual limits of such assays; settings: source organism: Dengue virus 1 Brazil/97-11/1997
[18] = biological target: HLA-B*07:02; assay: IEDB peptide-MHC binding, purified MHC/direct/fluorescence; filed as Kd, often an IC50 or EC50 that approximates it; ≥ and ≤ were set here for values at or beyond the usual limits of such assays; settings: source organism: Homo sapiens
[19] = biological target: HLA-B*27:05; assay: as above; settings: source organism: Mammarenavirus juninense
[20] = source organism: SARS coronavirus Tor2
[21] = source organism: Vaccinia virus Copenhagen
[22] = source organism: Zaire ebolavirus
[23] = source organism: Dengue virus 3 Martinique/1243/1999
[24] = source organism: Vaccinia virus WR
[25] = source organism: Sudan ebolavirus
[26] = source organism: Marburg virus - Musoke, Kenya, 1980
[27] = source organism: Dengue virus 4 Philippines/H241/1956
[28] = source organism: Dengue virus 1 Brazil/97-11/1997
[29] = source organism: Vaccinia virus
[30] = source organism: Dengue virus 4 Dominica/814669/1981

Sequence: FVDGVPFVV
Kd ([1]; source organism: SARS-CoV1): 1410 nM | Kd ([2]; source organism: SARS-CoV1): 124 nM | Kd ([3]; source organism: SARS-CoV1): ≥ 23100 nM | Kd ([4]; source organism: SARS-CoV1): 23.3 nM | Kd [5, 20]: 9.62 nM | Kd [6, 20]: 85.9 nM | Kd [7, 20]: 0.908 nM

Sequence: RTRYLPSLV
Kd [8, 21]: 0.485 nM

Sequence: AWIPYFGPA
IC50 [9, 22]: 20000 nM | IC50 [10, 22]: ≥ 81100 nM

Sequence: LIGNEEFLDY
Kd [11, 23]: 1670 nM

Sequence: GSKASCVLK
Kd [8, 24]: 265 nM

Sequence: TITETAATI
IC50 [9, 25]: 44900 nM | IC50 [10, 25]: 48400 nM

Sequence: LESRFTPQF
IC50 [10, 22]: 16200 nM

Sequence: ALLTGSYTI
Kd [2, 26]: 0.5 nM | Kd [4, 26]: 6660 nM

Sequence: TFKDESIFI
IC50 [10, 21]: 328 nM

Sequence: RLLLNRFTM
Kd [12, 23]: 33.2 nM

Sequence: KVKYEGAGA
Kd [8, 27]: 123 nM

Sequence: KLRCRNTEA
Kd [8, 24]: 14.2 nM

Sequence: INVEYRFLV
IC50 [9, 24]: 1650 nM | IC50 [10, 24]: 5730 nM

Sequence: ALLATSIFK
Kd [13, 28]: 4.12 nM | Kd [14]: 23.4 nM | Kd [8, 28]: 544 nM

Sequence: GLDPTGVAV
Kd ([2]; source organism: Mycobacterium tuberculosis): 17.4 nM

Sequence: LIEWAMEKS
IC50 [9, 29]: ≥ 408000 nM

Sequence: MLYILGLFK
Kd [15]: 102 nM | Kd ([3]; source organism: Orthohantavirus hantanense): 18.6 nM

Sequence: ELSFTVVSN
IC50 [9, 22]: ≥ 220000 nM | IC50 [10, 22]: ≥ 119000 nM

Sequence: QTGIQRTVFF
Kd [11, 27]: ≥ 70400 nM

Sequence: FTPQFLLQL
IC50 [9, 22]: 292 nM | IC50 [10, 22]: 814 nM

Sequence: STINICLPY
Kd [12, 24]: 31.5 nM

Sequence: DKLSSTNQL
IC50 [10, 22]: 16200 nM

Sequence: FLNEDHWFGR
Kd [12, 27]: 1560 nM

Sequence: EEINNQLLL
IC50 [10, 29]: 57800 nM

Sequence: IRYQATGFG
IC50 [10, 22]: 54400 nM

Sequence: LLYFKVFGI
Kd [12, 24]: ≥ 37400 nM

Sequence: AIKVLKGFK
Kd [13, 23]: 157 nM | Kd [8, 23]: 1390 nM

Sequence: NLTSTWVMY
Kd [11, 30]: 1990 nM

Sequence: NSDEQSLEY
Kd ([1]; source organism: Francisella tularensis subsp. holarctica LVS): ≤ 1 nM

Sequence: TDFHERPVI
IC50 ([10]; source organism: Variola virus): 408 nM

Sequence: KCYGVSATK
Kd [16]: 3520 nM

Sequence: LINFLLRSI
Kd [12, 24]: 254 nM

Sequence: MLTPINEEA
IC50 [9, 22]: 780 nM

Sequence: GVTGILQLP
IC50 [9, 22]: 63500 nM

Sequence: KLGLITNTI
IC50 [9, 22]: 1920 nM

Sequence: IAVGMVTLY
Kd [17]: 13.5 nM

Sequence: AIMMILSTI
Kd [12, 24]: 2.45 nM

Sequence: GRQTQSRPI
IC50 [10, 22]: ≥ 204000 nM

Sequence: ITDYQGKTV
Kd [11, 27]: ≥ 33900 nM

Kd ([2]; source organism: Homo sapiens): ≥ 21800 nM | Kd ([4]; source organism: Homo sapiens): 6780 nM | Kd [18]: 5520 nM
Sequence: APTGDLPRA

Sequence: QRKKTGKPSI
Kd [8, 23]: 1150 nM

Sequence: TSITQKGIIF
Kd [11, 28]: 7350 nM

Sequence: EFLRYLLFG
IC50 [10, 29]: 17800 nM

Sequence: HILGPDCCI
IC50 [9, 22]: 66400 nM | IC50 [10, 22]: ≥ 135000 nM

Sequence: IISTDQDTML
Kd [5, 24]: 451 nM | Kd [6, 24]: 1810 nM | Kd [7, 24]: 666 nM

Sequence: YTISSESLV
Kd [5, 24]: 522 nM | Kd [6, 24]: 37.6 nM | Kd [7, 24]: 53.6 nM

Sequence: GKIIHEWCCR
Kd [12, 28]: ≥ 51600 nM

Sequence: SSNNVSSSI
Kd [12, 21]: 155 nM

Sequence: QQFANVISKI
Kd [5, 24]: 51.5 nM | Kd [6, 24]: 1.7 nM | Kd [7, 24]: 863 nM

Sequence: RRVAHSSLY
Kd [19]: 170 nM

Sequence: AAVTLNRIKI
Kd [5, 24]: 830 nM | Kd [6, 24]: 3490 nM | Kd [7, 24]: 1920 nM

Sequence: GPILTLWEGN
Kd [12, 30]: 504 nM
